Drawing on the supplement of paper PMC10567573, this text covers protein stability index for 94 variants.

B1: SLC22A15 (parent)
chain: IAQYALLGYFIRSWRTLAILVNLQ
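Note: lentivirally expressed fusions sorted by FACS into six bins by GFP to DsRed ratio, PSI derived from sequencing read proportions per bin multiplied by bin number.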

The data set covers variants of B1. As to the kind of experiment: protein stability index of a GFP-peptide fusion (GPS, HEK-293T) (PSI 1-6); higher = more stable. Conditions: c terminus: a fixed tail appended.
Take IAQYALLGYFIRSWRTVAILVNLQ [L17V]: the protein stability index turned out to be 4.09.
On to IAQYALLGYFIRSWRTIAILVNLQ [L17I], for which the protein stability index was found to be 2.52.
For IAQYALLGYFIRSWRTRAILVNLQ [L17R] the value was 1.98; for IAQYALLGYFIRSWRTEAILVNLQ [L17E], 3.59.
Regarding IAQYALLGYFIRSWRTFAILVNLQ [L17F], the protein stability index amounted to 2.3.
Then IAQYALLGYFIRSWRTPAILVNLQ [L17P], with 2.05; and IAQYALLGYFIRSWRTMAILVNLQ [L17M], with 2.57.
Then IAQYALLGYFIRSWRTAAILVNLQ [L17A], with 3.45; and IAQYALLGYFIRSWRTYAILVNLQ [L17Y], with 2.18.
Regarding IAQYALLGYFIRSWRTQAILVNLQ [L17Q], the protein stability index was determined as 2.85.
In the case of IAQYALLGYFIRSWRTTAILVNLQ [L17T], the protein stability index stood at 4.02.
As to IAQYALLGYFIRSWRTWAILVNLQ [L17W], the protein stability index stood at 2.85.
Then IAQYALLGYFIRSWRTGAILVNLQ [L17G], with 3.63; and IAQYALLGYFIRSWRTKAILVNLQ [L17K], with 2.4; and IAQYALLGYFIRSWRTHAILVNLQ [L17H], with 3.02.
For IAQYALLGYFIRSWRTDAILVNLQ [L17D] the value was 2.83; for IAQYALLGYFIRSWRTSAILVNLQ [L17S], 3.35; for IAQYALLGYFIRGWRTLAILVNLQ [S13G], 2.4.
For IAQYALLGYFIRMWRTLAILVNLQ [S13M] the value was 3.12; for IAQYALLGYFIRTWRTLAILVNLQ [S13T], 3.14.
Turning to IAQYALLGYFIRWWRTLAILVNLQ [S13W], the protein stability index amounted to 2.3.
As to IAQYALLGYFIRAWRTLAILVNLQ [S13A], the protein stability index worked out at 2.29.
For IAQYALLGYFIRHWRTLAILVNLQ [S13H] the value was 3.68; for IAQYALLGYFIRIWRTLAILVNLQ [S13I], 3.82; for IAQYALLGYFIRQWRTLAILVNLQ [S13Q], 2.61.
Regarding IAQYALLGYFIRLWRTLAILVNLQ [S13L], the protein stability index worked out at 4.37.
Regarding IAQYALLGYFIRCWRTLAILVNLQ [S13C], the protein stability index is 3.26.
As for IAQYALLGYFIRDWRTLAILVNLQ [S13D], the protein stability index amounted to 3.34.
On to IAQYALLGYFIRKWRTLAILVNLQ [S13K], for which the protein stability index turned out to be 1.4.
IAQYALLGYFIRRWRTLAILVNLQ [S13R]: the protein stability index came out at 3.53.
On to IAQYALLGYFIRFWRTLAILVNLQ [S13F], for which the protein stability index was found to be 2.29.
Then IAQYALLGYFIRNWRTLAILVNLQ [S13N], with 2.56.
As for IAQYALLGYFIRPWRTLAILVNLQ [S13P], the protein stability index turned out to be 2.
Consider IAQYALLGYFIRVWRTLAILVNLQ [S13V], for which the protein stability index came to 2.11.
As for IAQYALLGYFIRYWRTLAILVNLQ [S13Y], the protein stability index was 2.3.
For IAQYALLGYFFRSWRTLAILVNLQ [I11F] the value was 3.45; for IAQYALLGYFLRSWRTLAILVNLQ [I11L], 2.34.
Then IAQYALLGYFYRSWRTLAILVNLQ [I11Y], with 2.72; and IAQYALLGYFMRSWRTLAILVNLQ [I11M], with 2.89.
For IAQYALLGYFDRSWRTLAILVNLQ [I11D] the value was 3.1; for IAQYALLGYFERSWRTLAILVNLQ [I11E], 1.63.
IAQYALLGYFQRSWRTLAILVNLQ [I11Q]: the protein stability index was 2.14.
For the variant IAQYALLGYFSRSWRTLAILVNLQ [I11S], the protein stability index came to 2.68.
Then IAQYALLGYFTRSWRTLAILVNLQ [I11T], with 3.02; and IAQYALLGYFVRSWRTLAILVNLQ [I11V], with 2.88.
For IAQYALLGYFRRSWRTLAILVNLQ [I11R] the value was 2.37; for IAQYALLGYFPRSWRTLAILVNLQ [I11P], 2.1; for IAQYALLGYFHRSWRTLAILVNLQ [I11H], 2.63.
As to IAQYALLGYFCRSWRTLAILVNLQ [I11C], the protein stability index is 2.6.
For IAQYALLGYFNRSWRTLAILVNLQ [I11N] the value was 2.32.
As to IAQYALLGYFKRSWRTLAILVNLQ [I11K], the protein stability index is 3.38.
As for IAQYALLGYFARSWRTLAILVNLQ [I11A], the protein stability index was 2.96.
Then IAQYALLGYFIRSWRRLAILVNLQ [T16R], with 3.13; and IAQYALLGYFIRSWRKLAILVNLQ [T16K], with 1.98.
IAQYALLGYFIRSWRLLAILVNLQ [T16L]: the protein stability index is 2.43.
For the variant IAQYALLGYFIRSWRGLAILVNLQ [T16G], the protein stability index came out at 2.8.
For IAQYALLGYFIRSWRPLAILVNLQ [T16P] the value was 5.02; for IAQYALLGYFIRSWRNLAILVNLQ [T16N], 2.63.
On to IAQYALLGYFIRSWRELAILVNLQ [T16E], for which the protein stability index turned out to be 2.07.
Turning to IAQYALLGYFIRSWRHLAILVNLQ [T16H], the protein stability index turned out to be 3.46.
For IAQYALLGYFIRSWRVLAILVNLQ [T16V] the value was 3.34; for IAQYALLGYFIRSWRDLAILVNLQ [T16D], 1.58.
Then IAQYALLGYFIRSWRILAILVNLQ [T16I], with 4.01; and IAQYALLGYFIRSWRCLAILVNLQ [T16C], with 4.17.
Then IAQYALLGYFIRSWRMLAILVNLQ [T16M], with 3.23; and IAQYALLGYFIRSWRSLAILVNLQ [T16S], with 3.05; and IAQYALLGYFIRSWRQLAILVNLQ [T16Q], with 3.17.
In the case of IAQYALLGYFIRSWRYLAILVNLQ [T16Y], the protein stability index was 3.88.
For IAQYALLGYFIRSWRALAILVNLQ [T16A] the value was 3.28; for IAQYALLGYFIRSWRTLALLVNLQ [I19L], 2.4; for IAQYALLGYFIRSWRTLAHLVNLQ [I19H], 3.34.
For IAQYALLGYFIRSWRTLAMLVNLQ [I19M] the value was 2.84; for IAQYALLGYFIRSWRTLAKLVNLQ [I19K], 2.96; for IAQYALLGYFIRSWRTLAELVNLQ [I19E], 4.
For IAQYALLGYFIRSWRTLAYLVNLQ [I19Y] the value was 3.28.
IAQYALLGYFIRSWRTLAPLVNLQ [I19P]: the protein stability index is 3.94.
Then IAQYALLGYFIRSWRTLAFLVNLQ [I19F], with 2.53.
Then IAQYALLGYFIRSWRTLACLVNLQ [I19C], with 3.7; and IAQYALLGYFIRSWRTLANLVNLQ [I19N], with 3.
For the variant IAQYALLGYFIRSWRTLATLVNLQ [I19T], the protein stability index was 2.44.
For IAQYALLGYFIRSWRTLARLVNLQ [I19R] the value was 2.16; for IAQYALLGYFIRSWRTLADLVNLQ [I19D], 3.35.
IAQYALLGYFIRSWRTLAQLVNLQ [I19Q]: the protein stability index worked out at 3.02.
Then IAQYALLGYFIRSWRTLASLVNLQ [I19S], with 1.99; and IAQYALLGYFIRSWRTLAWLVNLQ [I19W], with 2.01; and IAQYALLGYFIRSWRTLAALVNLQ [I19A], with 3.93.
For IAQYALLGYFIRSWRTLAVLVNLQ [I19V] the value was 2.96; for IAQYALLGYFIRSQRTLAILVNLQ [W14Q], 3.34.
As for IAQYALLGYFIRSLRTLAILVNLQ [W14L], the protein stability index worked out at 3.89.
With IAQYALLGYFIRSIRTLAILVNLQ [W14I], the protein stability index is 3.04.
For IAQYALLGYFIRSYRTLAILVNLQ [W14Y] the value was 3.53; for IAQYALLGYFIRSNRTLAILVNLQ [W14N], 3.47; for IAQYALLGYFIRSGRTLAILVNLQ [W14G], 3.14.
For IAQYALLGYFIRSKRTLAILVNLQ [W14K] the value was 1.79.
